Substitutions are numbered along the chain they refer to.
T1: recombinant human Nectin-4 (Acro Biosystems) (human, UniProt Q96NY8 32-349)
T1 construct: Bought recombinant antigen used as analyte in SPR; also called PVRL4
T1 sequence (looked up): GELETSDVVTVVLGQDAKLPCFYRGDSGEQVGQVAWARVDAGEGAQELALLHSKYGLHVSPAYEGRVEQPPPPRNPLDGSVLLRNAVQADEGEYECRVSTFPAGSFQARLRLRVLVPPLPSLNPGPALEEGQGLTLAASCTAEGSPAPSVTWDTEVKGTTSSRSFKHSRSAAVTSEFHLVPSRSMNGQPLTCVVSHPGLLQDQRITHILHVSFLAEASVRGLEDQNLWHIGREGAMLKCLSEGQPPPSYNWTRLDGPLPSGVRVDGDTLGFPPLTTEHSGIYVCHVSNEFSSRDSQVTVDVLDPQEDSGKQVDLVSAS

T2: recombinant cynomolgus Nectin-4 (Acro Biosystems) (cynomolgus, UniProt A0A2K5WES1 32-349)
T2 construct: Bought recombinant antigen used as analyte in SPR; also called Cyno Nectin-4
T2 sequence: T1 sequence (looked up) with V39A, I230V

T3: Nectin-4 on MDA-MB-468 cells (human, UniProt Q96NY8 32-510)
T3 construct: whole, on cells; also called Nectin-4 (on-cell)
T3 sequence (looked up): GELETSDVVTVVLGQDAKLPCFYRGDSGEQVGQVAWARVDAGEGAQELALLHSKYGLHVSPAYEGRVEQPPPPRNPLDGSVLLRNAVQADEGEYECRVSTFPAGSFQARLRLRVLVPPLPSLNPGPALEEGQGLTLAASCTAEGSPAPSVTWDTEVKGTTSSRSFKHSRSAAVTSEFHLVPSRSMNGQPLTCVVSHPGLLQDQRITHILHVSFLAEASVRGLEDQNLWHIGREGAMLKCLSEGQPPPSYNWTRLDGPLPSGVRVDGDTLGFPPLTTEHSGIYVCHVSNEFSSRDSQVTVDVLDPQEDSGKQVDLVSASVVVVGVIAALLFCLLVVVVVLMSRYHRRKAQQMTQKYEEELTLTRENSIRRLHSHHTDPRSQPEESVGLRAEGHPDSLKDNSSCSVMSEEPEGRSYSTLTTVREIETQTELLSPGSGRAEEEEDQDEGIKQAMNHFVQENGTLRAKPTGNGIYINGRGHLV

B1: NTX1105 (VH0/Vκ0) parental chimeric anti-Nectin-4 antibody, clone-11 (VH0/Vκ0)-hIgG1 (antibody, V domains shown)
VH: QVQLQQSGPELVKPETSVKISCKASGYTFTSYYIHWVKQRPGQGLEWIGWIYPGNVNTKYNERFKGKATLTADKSSNTAHMQLTSLTSEDSAVYFCARSNPYVMDYWGQGTSVTVSS
VL: SIVMTQTPKFLLVSAGDRVTITCKASQSVNNDVAWYQQKPGLSPELLMYYASNRFTGVPDRFTGSGYGTDFTFTISSVQAEDLAIYFCQQAYRSPYTFGGGTKLEIQR
notes: Tested from supernatants of transfected cell cultures; also called chimeric antibody; parental mAb
B2: NTX1105 humanized variant VH4/Vκ4 (antibody, V domains shown)
VH: QVQLVQSGSELKKPGASVKVSCKASGYTFTSYYIHWVRQAPGQGLEWIGWIYPGNVNTKYNERFKGRVTITADKSTNTAYMELSSLRSEDTAVYYCARSNPYVMDYWGQGTSVTVSS
VL: DIQMTQSPSTLSASVGDRVTITCRASQSVNNDVAWYQQKPGKAPKLLMYYASNRFTGVPDRFSGSGYGTDFTLTISSLQAEDLAIYFCQQAYRSPYTFGQGTKLEIK
notes: Humanized IgG
B3: NTX1105 humanized variant VH4/Vκ1 (antibody, V domains shown)
VH: B2 VH
VL: B2 VL with D1S, Q3V, T10F, S12L, V15A, R24K, K42L, K45E, S63T
notes: Humanized IgG
B4: NTX1105 humanized variant VH4/Vκ3 (antibody, V domains shown)
VH: B2 VH
VL: B2 VL with R24K
notes: Humanized IgG
B5: NTX1105 humanized variant VH4/Vκ5 (antibody, V domains shown)
VH: B2 VH
VL: B2 VL with L83V, I85V
notes: also called NTX1105 (H4/k5); H4K5
B6: NTX1105 humanized variant VH5/Vκ4 (antibody, V domains shown)
VH: B2 VH with I48M, K65Q, N77S
VL: B2 VL
notes: Humanized IgG
B7: NTX1105 humanized variant VH5/Vκ5 (antibody, V domains shown)
VH: B2 VH with I48M, K65Q, N77S
VL: B2 VL with L83V, I85V
notes: Humanized IgG; also called H5K5
B8: NTX1105 (H4K5) ADC, conjugated to MMAE at the same DAR as PADCEV (antibody, V domains shown)
VH: B2 VH
VL: B2 VL with L83V, I85V
notes: also called NTX1105-MMAE; NTX1105-MC-VC-PAB-MMAE DAR4

Molecular target: T1, recombinant human Nectin-4 (Acro …)
Assay: SPR, Biacore T200 single cycle kinetics at 25 C, IgG from culture supernatant, Nectin-4 as analyte
Experimental: (§1) In order to assess the binding of all of the variants to human or cynomolgus Nectin-4 antigen and select lead humanized IgGs with the closest affinity to the chimeric (VH0/Vκ0) antibody, single cycle kinetic was performed on supernatants from transfected cell cultures. Kinetic experiments were performed at 25° C. on a Biacore T200 running Biacore T200Control software V2.0.1 and Evaluation software V3.0 (Cytiva, Marlborough, USA). Single cycle kinetic data was obtained using recombinant human (Acro Biosystems, Newark, USA) or cynomolgus Nectin-4 (Acro Biosystems, Newark, USA) as the analyte injected at a flow rate of 40 μl/min to minimize any potential mass transfer effects. A four point, two-fold dilution range from 1.25 nM to 10 nM of antigen in running buffer was used without regeneration between each concentration. The association phases were monitored for 150 seconds for each of the four injections of increasing concentrations of antigen and a single dissociation phase was measured for 250 seconds following the last injection of antigen (in order to improve fit the dissociation was cropped to 175 seconds for human Nectin-4). Regeneration of the sensor chip surface was conducted using a single injection of 3 M MgCl₂. Based on relative KD from Biacore single cycle kinetics analysis on supernatants, six humanized variants (VH4/Vκ1, VH4/Vκ3, VH4/Vκ4, VH4/Vκ5, VH5/Vκ4 and VH5/Vκ5) were selected as lead IgGs for scaled-up production and purification.

Molecule | Kd [nM]
B1 | 10.9
B2 | 18
B3 | 15.4
B4 | 15.5
B5 | 12.2
B6 | 17.7
B7 | 11.5

Molecular target: T2, recombinant cynomolgus Nectin-4 (Acro …)
Assay: as above
Experimental: as §1

Molecule | Kd [nM]
B1 | 12.1
B2 | 21.3
B3 | 19.3
B4 | 19.4
B5 | 13.7
B6 | 19.2
B7 | 12.7

Molecular target: T3, Nectin-4 on MDA-MB-468 cells
Assay: flow cytometry on MDA-MB-468 cells, 3-fold dilutions from 3 ug/ml, detection with Alexa Fluor 647 Fab goat anti-human IgG (H+L); y axis % Bound
Experimental: Binding was evaluated on MDA-MB-468 cells. Briefly, 5*10+ cells per well were stained using either PADCEV or NTX1105 conjugated to MMAE at the same DAR as PADCEV. The ADCs were added at concentrations starting 3 μg/ml using 3-fold dilutions. […] After 72 hours, the assay was harvested and tumor cell killing was evaluated using CellTiter-Glo® 2.0 Cell Viability Assay-(Promega G9242).

Molecule | EC50 (read off the curve) [µg/mL]
B8 | ~0.01

Molecular target: T3, Nectin-4 on MDA-MB-468 cells
Assay: flow cytometry staining of MDA-MB-468 cells, anti-human IgG Fab Alexa Fluor 647 detection

Molecule | EC50 [nM] | fold stronger EC-50 than NTX1105 conjugated to MMAE [fold]
Enfortumab-vedotin (PADCEV) (antibody) | 0.01 | 20

Source: patent US20260014269A1 (NECTIN THERAPEUTICS, published 2026)
